From the DeepSol protein solubility set

Assay: soluble on expression in E. coli; label from the status in PepcDB or PDB records

Sequence	soluble on expression in E. coli
MAHHHHHHMSTEPTPRVIVFDLDGTLWRPEMYELWGGGAPFMLSKDNSSIAIDKKGTEVRLIGQTRELLQMLSTTEEWRNTHLAISSTCDEPRWAMELLQLFRFRDKRGNDVPMLSLFGDLVEIYKANKKNQHRTILKKVKEHDPTVRGDFSDFIFFDNQQDNIGHVSSIGVTSIYCPNGMVGGVFERGLKEWRDKEKKRAL	soluble
MAHHHHHHMSTEVSSGSNDGPSFHHHIQDAVHMIWNNQCSEAEEILFPYKEIHPRYALEYANKYLVQTLMNSTNESREILLELFKVADSLASAAKYSEPMFDFDVENDGDGTGMSMCLPSKAERKISKKSFNGRRKAAEKAGQSFVDNWKLECDVIYADALLMRSVCQLMMNSYFKGGVNLRRTWGLYHKLIQVVEADRTNQIPNELKMCVKYGTGAFYAFLALVPANLMRLLNVIGFISDKELGEQYLTEVFESNGVRSPFAALVLCTLYLFLPTGLGRVEETLAKAKRILDAMNQKYEHNTYFYGYSNFYHRKRGETAEALMAIQLAETNAERAGLVPILIRYLHADTLFMDLRFEEARDRYAALLDHLAKTKESFAYTGQVVLSLAACFVMLGDDAQAIQWLKKVGSMYNSRSKNDANSPKFASRVLANPRLLPLCGVYMLYINRDLAHMKVEQAERLLEELTRVTKGKDLSGPEPENMFTLFVGVIHKGCDRIDEAFGYMSKIFANEKRVPNDSMVLPYAYYEAGELEYRRGNYENAKTLFTKGQSLKGDGNETLMNRYNIALKQLKRTMEERKGA	not soluble
MAHHHHHHMSTSNEEDKWSAISAKKIAPKYRKGYYPNRDIMTPKKKTEKKELTYKNSKIAIGRTKSLRFRRDTVTFATKNINFQHRKKSILSKQKSMAEPKLKKQNTVALKRRKTMSRLNSMKKPPYTIVLNKKKVINMNKGMHPSENRKDKISGTTNTPLAARRMLARSKTKVLVDNETKIFKKENVKMVSSNPFNPIASSVESSRRNELENGKQKKELGTVGSANKRESAQHLSTNADKKKIYHNSVRNKLKSKKEEMFQNIISLTKNMKEKPLKKKYNDQIDPRDLLSVTSNNSSVAVDDDL	not soluble
MAHHHHHHMSYQPPYGYASSPQASPYFPGGNYYSTPPPIPQQQPFQTSPLFGTEQEAVQWFRAVSSSSGGYISVPQLQSALSQGGMNFSYATTERLISMFDANLDGAIDFTEFQELHRYILSMRGGFSQRDTSRDGLLEGNEVRMALSANFYQVDDNTFQTLMRKFDRRKRGSLGFDDYIELSLFVGKANDAFKAQSQGKASATFSFSSFLSAGASLL	soluble
MAHHHHHHMTALITKQRYNWMGYDGVESAVCDTALLRSDGGPANNYNYMHRQQVIMEVKERLYRIKRDLGLIPEEELRAEERAIQRRRMEKKRREEEERIRKEAEEAARAEEMERRHLELEEAEERASAEEVATQASAEHKHYMNDSDEDSDEENGIDDEQSASLVAMLRTQEEIDSAIAGFTKGTRMLLASSGNGYVSYLDGSVHFTIAKVESHNASNREKVMQALAGTNVAMPTAEEYSLEEVRQAMHDRDTARKKLDALRALQDPTYTARIRSAEKDTYGTPVQQLMEEDGDMSALVANCEDAKRFAESVRKAYNSRAAASAHALACALCTPPFTAEQESTSEAQAPAGKMANAEDGVSQPTGANSPSSSTSAQ	not soluble
MAHHHHHHMTDASKYKKLTPIDHVLLRPEMYVGSIETQPTPMYIFDPEKGRMVWETMRVNQGLLKIVDEILLNAADNINNSKGSVRQTYINIHISDTGEITVENDGAGLPIVRSREHKMYIPEMVFGHLLTSSNYNNDSTSTTAGRHGYGAKLTNILSTKFSVVCRTDGREFHMSWTDHMRMATAPRVNRVDPKEKNVTRVKFMPDYAHFGFPSASISLDMKRVLHKRVMDLAAMFSKIEVRLNNVPFGFRTFTDYAGLYSLPGLDGSMPPEPFVYTSPNGSVAYVPQLTQSPKRIVSVVNGVVTYNGGTHCNAAMDILDACLDSLSKNFKKNGKVVDTNRVQRHFTVLVFLVQAQPKFDSQSKARLVSTVTMPRVPKNTLEKYLERMPFLEAHVNSMDDQLTNELNKEIGAGRRLSSKTLISSITKLVDATSSRPDGRNIRTLIITEGDSAKALALNSLSSEQKKYCGVFPLRGKLLNVRNKNLKRLKTCKELQDLFLSLGLELGKEYRSPAELRYQRLLVMTDQDADGSHIKGLVINAFESLWPKLLQNNPGYISLFSTPIVKIKVSGKSKEAIAFHSFRDFHRWQRAHPSARYTAKYYKGLGTSTTAEGKEYFADMEKNVMQLTVDARDHQLLDSVFDAAEVEWRKEWMTKANAFQGEVDIDRSKKTLTIPEFVHKEMVHFALVGNARAIPHCVDGLKPSQRKILWAMLRRHNSEASKVAQLSGYISEASAFHHGEASLQETIVKMAQNFTGGNNINLLVPEGQFGSRQQLGSDHAAPRYIFTKLSRFARLLFPEEDDPLLDYMDEEGTFVEPHHYVPILPMLLCNGAVGIGFGFATTIPSFHPLDVSAAVRAMINGESAKQVVRNLVPWAVGFQGTVRRGPDNEFIAVGKYTAHPNGRFHISEIPWMTSIEAFRLHISSLASADVVQRIADYSGANHIDIDLIVRDGSLTTWAECETDLALAQRIYINGTVFSPAGTLSPIDSDLSPVLQWHYDRRLDLYKRRRTRKIGLMEMDLARLQSTRKFVEHFRQGQIDFLNATDDTLHKTCVKLGLVRVDESFDYILKKPITFFTRTSTEKLQADIAKTQAQIEELKRTTPVKMWLTELDKFDKTFQEYERVLINSIQKEQRSSSITGGVELPALRQPLLLLEASVKGATAYRVHACQYEKPPPSKRRPGESFGGARSSDSAVRGVGKRLVGSRAVFKKKKPMGRKNNVKVSLSTRVAQFAGAQLGRLLPHILV	not soluble
MAHHHHHHMTGLIAPHAGMSYSGRTAAEAFAVFREYLYAKGSKGSELERIFILGPSHTRGFEGCELSAASAYETPFGPLRVDTAVVDRVITDLRKAGVGAATASRRTDEAEHSIEMETPYLSHILHYPPTTTGAPVQPAAGRVAIVPIIVGWTNRQDEKAICDVLKPYMDDARNFFICSSDFCHWGERFSYTYHYKRSEYPNIGDSIIAMDHAAMELLEKRDLERWYAYLQMTKNTICGRAPISIGMQRWASKGNKARVKFVHYSQSNKCKDADDSSVSYAAAIIME	soluble
MAHHHHHHMTQLHSVASLDYGDGRTCVCRICECGKHQCPGLRVPFVGETTYRDEYVGKSIERERPRKARQTVFPSKAEPGHFKTTKQEAADLLKGKDLRPAESYKPREAAAAPLPFEGTTTNRADFPGWMPDYNRTKRKEDPLPRLPGTYVTTKGAMEEPVRDLAEQGRLPKPPKSFKADDTLQNSLPFDGITNYTAEYQPKEVPMTRSAARDVQPVALPENRDFQTTVSAAYQVPPMHMRHDCPAAFVPMRPASRDGHIKLSVYNIPSGDTMY	not soluble
MAHHHHHHMTTADDVCGAYTLSHCDGKVAPTKATLTIHRCGEILTAHVTVVNDLRGTVQYENCHIVGSLHSTGNEASPAQESVEQALSKGFADGFNVVVEMNQVLLKNANSAFVFARLSKLSDLNGEHAIIAINDQPPNQEMTMIFTPDGNGGSFVAANIANSLRGNCQIDAGLLRGDLATTQSEADESLMQVEKLISEGFQQGFHVCMNESGILLQSSEANIQLCRIVSHSDLEGEYVLKSFNGAPVPTRNQPSIVFKSVNTNEVEISIVVANRIRGTAALNQNVLSSEEPLMSTRMMGTEEESQLENAFNVGFQYGLETISHGNELTLKNQDCKFVLVKAAAPAAQHGGPTYKGTYCNKCFKTEGNGLLFRIVNEHEKKWAFYNDTEDLRIRVRATFGARSKIEALDNANMYKDDDGRYVVEVTVDPQATEMFIQGDVNGFRVLYDAQPI	not soluble
MAHHHHHHMTVVQEAIRVTSATPQPCGAADDVLAMKTLSPHDKVRRYMEEQECRHVPPTDATPEVASSEGGHDDALPGQHEDGDGEINHKIVPFTGEPGPDARERVPDRQKEKKKQKKQQAPRKRKHRSECAGREADDPLLLFRRSQKALRTEARHVNMKEVLSRSLSGVFDGLGEASNPFSPAAGSQSSSAWSPLVANSITSQFLSNVQQRKKQTFERLLQKEIANSQLSTSRLTPDDGEPDDRIPELVIGDETAVMEPPSMGHDALLMDAGTTSSQADTLLMGNTTSRGFVELDEEAEQAQSEALMRKHELWRLRQKHLRERLRAEESIPQLKRGDHQASLRGQPQTTVPMNFVTQSTSSLSTARGTTADVDGPTETLVLAHCSIIQQSQSLALGLSADHIEMIRRANNFDNTSSQRLVVFETKSRMKREGLAHLQQ	not soluble
MAHHHHHHMVLTSDRGWPYSWERGESGILPDCYLNSEVERVWQIVKKDLTKLFSSHGKNKPSCHPRVLIGTPGIGKSMNVGSYLLYQLLHYDVEQLPMVVYFIANLTFLFDKTAKMVSLYTNEASILRILDGLPDRGFKGHIIYDVAMKGHQPSIGLPCKGWGMIVVTPPDKNNHEWWAKQMGAEEFIINCPEENDVRAMCIWMKRNRPLQEQAEYWKEVNGRMNKVGPILRFIFGKQAYDDRIKACQQALDGMNASKFEGYLDIGYCCVSNDSDLSRKLVKVVRVRRGYNFASPLNVLISPHLERETLSRLEDGMKQSDFIFFVLRFWDYVPPYLIEKYAVSAFLNDDFLRAIRLKIKELWPPGRRESHRCALKEHSDTSFARKEVLPPPERLSNPVAMDHWVLYEPKVQNFPLVDGFFFVDSNPKTLVGLRMTTAGGHRTTTRTVRRFTE	not soluble
MAHHHHHHMWAKYSSSAVEEASKQAKSFATYPSSTPDMSGDEKEAFHETNSRDAFTVALLKHVARNLGVQYMGDRVETSDSIVMDKLGRIKAEIRSRERLLGVENMGLIPLFIEAGDSSLTCEDSLIYYKKALDIVEANKDIKRDSNMMNDVGVSSFADLGSRFFRYGQYQVAERLFTMAAAISRDKVTGVAEEISFSTAQCGSQKSLQRLKGHLWDWKKAAEAANEDLSTLLSDATRNTHRFREMRDACSQTDLAEHRVAMPASQFIGTKREMKGLKGTRNGEELKRLVEYVFDPMSVEDGFTRQLLPKGSRNTTRLLSEHFTGSNPCLALRESIDCITSRIGAKADSINSSGGALRRELQTR	not soluble
MAHHHHHHMWDPFRDIDRIFNRVLPLTGAGSFSSFSRGSWSPAMDLVEKPEGYKLLVDLPGMNREDIQVGIEDNRLCISGNRKSLLKDDEQHLAVFLERGYGRFERCMNLPSPIVEESVKARLRDSVLVVELKKNNSPASSAATSVTIQ	soluble
MAHHHHHHMYKYEKLYFFMCWKKCRFNNLTKVFLHSSNDYYNNLNVIKKEKGIFEKLLCIGNYNVDNFCFDKELYEKYRECIKNDYEKIRIKLKERKQNEYNNIHSKNLEHNESNICNNNNNNNINVYESYLYNIIQNNDYKDILISDVIYENGKNILCIGEANLSFSLLLQKNLNLCKVVSTSREDESVLIKKFGKKYFSKNLKLLESSGGIYIPNMNVENLSNQFLKNTFDIIIFNFPFVLPTKECIEKKWNIKLEREEIYSDNLKNETNSNNNSNSNNNNKSNNNNGNNNSSNNVYIKYYKKTEYFLLNKLIYHLFKCASHLLKNEGFLHIRLNDKYLTCSFPKNMSLSFLQKIDFSNSYIIYKSLKYVPSLFDCTFLNYEDKKKEKTKNNVIFTSSGKKIFKSFKMKHTSTLIFQKI	not soluble
MAHHHHHHMYLGSIKNFEDDFLCKGEYKQVYLSLEQNENNEAIEIDICCDNNIYDILQFCREKYGIYGEYIIDSCGNVIHSIKDIIDGDTLYLKEKKEDMNFFSKIKNNFIVNDYIVEKRIGSGGFGIVFQGVHIQTKQKVALKFIPKSNFLDVTDVHRVFIEIQTLRGLIHNNIIKMYDVNHFQNYVCLIMEYAINGDLKNYIKNKFNGFLSEKEAHDLFLQIVKGVYYCHSKHIVHRDLKLENILLDEKMTCKIADFGLSDFVNVDQNIKTEAGTKAYIAPEIIFNQTINYSVFKLDIWSLGILLFIMTQGFAPFKYMEKELKNFESNTLNYANDISDDLKDLISLMLNVDPNKRPIIVEILNHRWFENYKES	soluble
MAHHHHHHMYLLQCEKKKKQKGKGQIGLTQVEYIGKPLIGGDFTLINHDGKVVTNEDFKKKFCLIYFGFTYCPDICPQELEKQTIVIERIVKKYGDVITPVFISVDPNRDTLAQVKHYCSSFSDRLVGLTGTKEQIRRVAKLFRVYYNEHVVGEEQTEEQTEKQKERQTDTQTEAQSGDPPRAPSYNYLIDHSIIHYLLDADGKFVDFFGKNCTTSEMVERISHYVDLHLQ	not soluble
